# Assay results taken from patent publication US9205136B2, “Human aminoacyl-tRNA synthetase polypeptides useful for the regulation of angiogenesis” (THE SCRIPPS RESEARCH INSTITUTE, priority 2000, dated 2015).
# Entries after “also recorded” stand apart in the source; their conditions may differ.
# B1: mini TyrRS: truncated TyrRS, residues 1-364 of full-length TyrRS, amino-terminal catalytic domain (protein)
# chain: MGDAPSPEEKLHLITRNLQEVLGEEKLKEILKERELKIYWGTATTGKPHVAYFVPMSKIADFLKAGCEVTILFADLHAYLDNMKAPWELLELRVSYYENVIKAMLESIGVPLEKLKFIKGTDYQLSKEYTLDVYRLSSVVTQHDSKKAGAEVVKQVEHPLLSGLLYPGLQALDEEYLKVDAQFGGIDQRKIFTFAEKYLPALGYSKRVHLMNPMVPGLTGSKMSSSEEESKIDLLDRKEDVKKKLKKAFCEPGNVENNGVLSFIKHVLFPLKSEFVILRDEKWGGNKTYTAYVDLEKDFAAEVVHPGDLKNSVEVALNKLLDPIREKFNTPALKKLASAAYPDPSKQKPMAKGPAKNSEPEEVILEHHHHHH
# modifications: His6 tag; Human mini TyrRS in pET20B
# notes: truncated TyrRS, residues 1-364 of full-length TyrRS, amino-terminal catalytic domain
# Columns and labels:
# MPs [1] = assay: MP chemotaxis assay (ChemoTX microchemotaxis chamber); type: cell-based, human; details: sample proteins 1 nM, 3 hours
# Description: (§1) Cells for the various cytokine assays described were prepared from acid citrate dextrose-treated blood of normal healthy volunteers. Human PMNs were isolated from the blood by centrifugation (700×g) over Histopaque 1077 and 1119 (Sigma). […] This procedure was repeated twice. Human MPs were isolated by centrifugation on Histopaque 1077 (Sigma). The mononuclear fraction was obtained, washed twice in Hanks' balanced salt solution, resuspended in RPMI-1640 medium (Sigma) containing 10% heat-inactivated fetal bovine serum (Sigma), plated in tissue culture flasks, and incubated in a 6% CO2 incubator at 37° C. for 1-2 hours (Kumagai et al., 1979, J. Immunol. Methods 29:17-25). Nonadherent cells were removed by washing the flasks three times with Hanks' balanced salt solution, and adherent cells were harvested by incubation with calcium-magnesium free phosphate-buffered saline containing 2 mM EDTA for 15 minutes at 4° C., followed by extensive washing.
# MP chemotaxis assays were performed in a ChemoTX microchemotaxis chamber (Neuro Probe, Gaithersburg, Md.) containing polycarbonate filters (5 μm pores) with polyvinylpyrrolidone (PVP). MPs were suspended in RPMI-1640 medium containing 1% heat-inactivated fetal bovine serum, and 10^4 cells were added to the upper chamber. Sample proteins (1 nM) were added to the lower compartment of chemotaxis chambers, and the chambers were incubated for 3 hours. After incubation, nonmigrating cells were removed, membranes were fixed in methanol, and migrating cells were visualized with the HEMACOLOR™ stain set (EM Diagnostic Systems, Gibbstown, N.J.). Migrating cells were counted in high-power fields (HPFs). Each determination shown in FIG. 2 represents the average of nine HPF measurements.
# MPs [2] = assay: MP tissue factor production (Factor VIIa-dependent Factor Xa formation); type: cell-based, human; details: 1 nM sample protein, 4 hours
# Description: as §1
# MP tissue factor production was examined following incubation of 10^4 MPs with 1 nM of sample protein for 4 hours. Tissue factor activity was then inferred from measurements of Factor VIIa-dependent Factor Xa formation (Wolfson et al., 1990 J. Chromatogr., 503:277-81). Each determination shown in FIG. 2 represents the mean of four measurements from at least three independent experiments.
# PMNs [3] = assay: PMN chemotaxis assay (ChemoTX microchemotaxis chamber); type: cell-based, human; details: for PMN chemotaxis (PMN migration): sample proteins 1 nM, 45 min
# Method in brief: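 Human PMNs were isolated from healthy-donor blood over Histopaque 1077/1119. 10^4 cells were placed in the upper compartment of a ChemoTX microchemotaxis chamber, with sample protein at 1 nM in the lower compartment. After 45 min, migrated cells were counted as the mean of nine HPFs.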
# PMNs [4] = assay: 125I-human mini TyrRS binding and competition assay on PMNs; details: 10 nM 125I-mini TyrRS, 200-fold molar excess of unlabeled ligand, on ice 2 hours
# Method in brief: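 Human PMNs (2×10^6) in RPMI-1640 with 20 mM Hepes pH 7.4 and 10 mg/ml BSA were incubated with radioiodinated mini TyrRS. Bound and free label were separated by centrifugation through a 10% sucrose/PBS cushion, and cell-associated radioactivity was counted by scintillation.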
molecule,measurement,setting,value
B1,MP chemotaxis (MP migration),MPs [1],did not induce MP migration
same,MP tissue factor production,MPs [2],did not stimulate production
same,concentration dependence of PMN migration,PMNs [3],bell-shaped concentration dependence
same,PMN chemotaxis (PMN migration),PMNs [3],did induce PMN migration
same,PMN chemotaxis (PMN migration),PMNs [3]; listed as human mini TyrRS,led to an induction of PMN migration
same,inhibition of 125I-mini TyrRS binding to PMNs by unlabeled ligand,PMNs [4],inhibited the binding; also recorded: inhibited by the presence of excess amounts of unlabeled mini TyrRS
